This note sets out measurements from PMC5290276, “A quantized mechanism for activation of pannexin channels” (Nature Communications, 2017).

Data set [1] deals with 2(1CT)-GFP, GFP-tagged tandem dimer linking a full-length PANX1 subunit to a C-terminally truncated PANX1 subunit (human) (UniProt Q96RD7). As to the kind of experiment: single-molecule photobleaching (TIRF microscopy), subunit counting; GFP-tagged concatemers in the plasma membrane of HEK293T cells 5-7 h after transfection; photobleaching steps fitted by binomial distributions assuming ~65% of GFP is fluorescent.

Data set [2] deals with 3(2CT)-GFP, GFP-tagged trimeric concatemer of two full-length PANX1 subunits and a C-terminally truncated PANX1 subunit (human) (UniProt Q96RD7). As to the kind of experiment: cross-linking; HEK293T cells surface-biotinylated (Sulfo-NHS-LC-Biotin, 4 °C, 30 min), then cross-linked with 1.8 mM disuccinimidyl suberate at 4 °C for 1 h; streptavidin precipitation and western blot; not quantitative according to the paper.

For data set [3] the target is unchanged. As to the kind of experiment: single-molecule photobleaching (TIRF microscopy), subunit counting; GFP-tagged concatemers in the plasma membrane of HEK293T cells 5-7 h after transfection; photobleaching steps fitted by binomial distributions assuming ~65% of GFP is fluorescent.
Data set [4] has as its target caspase 3-cleaved PANX1 (C-terminally cleaved human PANX1) (human). Briefly: SEC; purified PANX1 in amphipol A8-35 on an SRT-C 300 column (Sepax); oligomer size judged from the elution volume.
Data set [5] deals with the molecule itself. The description is as above.

For “2(1CT)-GFP, GFP-tagged tandem dimer linking a full-length PANX1 subunit to a C-terminally truncated PANX1 subunit (from UniProt Q96RD7 1-426)”, the stoichiometry N in data set [1] is 3.

For “3(2CT)-GFP, GFP-tagged trimeric concatemer of two full-length PANX1 subunits and a C-terminally truncated PANX1 subunit (from UniProt Q96RD7 1-426; Q96RD7 1-426)”, the stoichiometry N in data set [2] and in data set [3] was 2 throughout. “caspase 3-cleaved PANX1 (C-terminally cleaved human PANX1) (domain or fragment)”: the stoichiometry N in data set [4] amounted to 6.

B1: full-length human PANX1 (Pannexin 1) with a C-terminal enterokinase cleavage site and hexahistidine tag (natural protein, UniProt Q96RD7-1 1-426, looked up)
chain: MAIAQLATEYVFSDFLLKEPTEPKFKGLRLELAVDKMVTCIAVGLPLLLISLAFAQEISIGTQISCFSPSSFSWRQAAFVDSYCWAAVQQKNSLQSESGNLPLWLHKFFPYILLLFAILLYLPPLFWRFAAAPHICSDLKFIMEELDKVYNRAIKAAKSARDLDMRDGACSVPGVTENLGQSLWEVSESHFKYPIVEQYLKTKKNSNNLIIKYISCRLLTLIIILLACIYLGYYFSLSSLSDEFVCSIKSGILRNDSTVPDQFQCKLIAVGIFQLLSVINLVVYVLLAPVVVYTLFVPFRQKTDVLKVYEILPTFDVLHFKSEGYNDLSLYNLFLEENISEVKSYKCLKVLENIKSSGQGIDPMLLLTNLGMIKMDVVDGKTPMSAEMREEQGNQTAELQGMNIDSETKANNGEKNARQRLLDSSC
notes: Pannexin 1 (PANX1), human, NM_015368, isoform 1, 426 a.a., full length; No removal of the tag by enterokinase is described; The purified protein was probed with anti-pentaHis in a purity western; also called full-length PANX1; source: Sf9 (baculovirus), purified from membranes (TALON cobalt resin, amphipol A8-35 exchange, SEC)
On to B1, for which the “stoichiometry N” value in data set [5] stood at 6.
